Assay results as given in US11505583B2, “Proteins for the treatment of epithelial barrier function disorders” (Second Genome, Inc., priority 2018, dated 2022).

Legend:
[1] = tested on: C57BL/6 mice given 2.5% DSS in drinking water; assay: Concurrent (prophylactic) DSS model of inflammatory bowel disease (Example 4, Example 13A); type: in vivo, mouse; conditions: for 4KDa-FITC signal in serum / Colon length: vs DSS+vehicle; for Colon length: FIG. 22A
Procedure: Specifically, the mice in Examples 4 and 5 were treated with dextran sodium sulfate (DSS), a chemical known to induce intestinal epithelial damage and thereby reduce intestinal barrier integrity and function. DSS mice are well-accepted models of colitis. In Example 4, mice were treated with SG-11 protein approximately concurrent with (6 hours prior to) administration of DSS. In Example 5, mice were treated with DSS for 6 days prior to treatment with SG-11 protein.
The graphs presented in Example 4 represent data pooled from 3 independent experiments, each using 10 mice (n=30). The SG-11 protein used in these experiments was the mature protein (no signal peptide) without an N-terminal tag and comprising the amino acid sequence of SEQ ID NO:3. For 2 experiments, the SG-11 protein consisted of SEQ ID NO:5; for the third experiment, the SG-11 protein consisted of SEQ ID NO:7.
Eight-week old C57BL/6 mice were housed 5 animals were cage and given food and water ad libitum for 7 days. Following the 7-day acclimation period, treatments were initiated concurrently with addition of 2.5% DSS to the drinking water. […] The mice were treated with 2.5% dextran sodium sulfate (DSS) in their drinking water for 6 days. Treatments were continued with SG-11 or Gly2-GLP2 twice a day (b.i.d.) in the morning and evening (every 8 and 16 hr) with i.p. injections at 50 nmoles/kg. Fresh 2.5% DSS drinking water was prepared every 2 days.
On day six, mice were fasted for four hours and then orally gavaged with 600 mg/kg 4KDa dextran labeled with fluorescein isothiocyanate (FITC) [4KDa-FITC]. One hour after the 4KDa-FITC gavage mice were euthanized, blood was collected and FITC signal was measured in serum. […] The magnitude of 4KDa-FITC dextran translocation observed for SG-11 was similar to the positive control of Gly2-GLP2. Results are shown in FIG. 3, and are presented as mean±SEM. The graph in FIG. 3 represents data pooled from 3 independent experiments (n=30).
SG-11 was also assessed for its effects on the levels of LPS binding protein (LBP) in the blood of the DSS animal with and without SG-11 administration. LPS binding protein (LBP), which has been linked to clinical disease activity in subjects with inflammatory bowel disease, was also measured by ELISA in the serum of mice tested in the DSS model described in Example 4. […] Results are shown in FIG. 4, and are presented as mean±SEM. The graph in FIG. 4 represents data pooled from 3 independent experiments (n=30).
Body weight was measured daily from mice included in the DSS model described in this Example. Percent change from starting weight on day 0 was determined for each mouse. […] Weight loss in mice treated with SG-11 at day 6 was similar to weight loss observed with Gly2-GLP2. The graph in FIG. 5 represents data pooled from two independent experiments (n=20).
Gross pathology observations were made in mice included in the concurrent DSS model performed in this Example. […] No differences in clinical scores were observed between mice given DSS and treated with either Gly2-GLP2 or SG-11. The scoring system used was: (0)=no gross pathology, (1)=streaks of blood visible in feces, (2)=completely bloody fecal pellets, (3) bloody fecal material visible in cecum, (4) bloody fecal material in cecum and loose stool, (5)=rectal bleeding. The graph in FIG. 6 represents data pooled from 3 independent experiments (n=30).
Colon length was measured in mice included in the DSS model described in Example 7. […] The graphs in FIGS. 8A and 8B represent data pooled from 3 independent experiments (n=30). Data are graphed as mean±SEM and are pooled from three independent experiments (n=30). Statistical analysis was performed by a one-way ANOVA followed by a Fisher's LSD multiple comparisons test.
Briefly, in the first DSS mouse model (Example 13A), mice were treated on day zero with test compound intraperitoneally (i.p.) and 6 hours later DSS treatment was initiated. […]

[2] = Post-translational modifications after storage, LC-MS/MS, SG-11 vs SG-11V5 (Example 10); type: physicochemical; conditions: for Oxidation of M1 (MLEGEESVVYVGK): 1 mg/ml in Buffer 1 (50 mM NaPO4, pH 8, 150 mM NaCl, 10% glycerol)
Procedure: In accordance with PTMs observed when SG-11 (SEQ ID NO:9) was subjected to stress conditions (Example 11), SG-11V5 (SEQ ID NO:19) was analyzed by LC-MS/MS for post translational modifications using the methods described in Example 11, and compared with PTMs for SG-11 (SEQ ID NO:7)
For this analysis, PTMs of wildtype SG-11 (SEQ ID NO:7) and SG-11V5 (SEQ ID NO:19) were compared. In the first analysis (results provided in Table 10 below), the proteins were stored at a concentration of 1 mg/ml in Buffer 1 (50 mM NaPO4^−, pH 8, 150 mM NaCl, 10% glycerol) and stored for 2 weeks at either 4° C. or 40° C. The proteins were then treated with DTT and IAA, followed by trypsin digestion. The digested samples were then analyzed by Waters ACQUITY UPLC couples to Xevo G2-XS QTOF mass spectrometer using a Protein BEH C18 column.
In a second analysis, the SG-11 (SEQ ID NO:7) and SG-11V5 (SEQ ID NO:19) proteins were each stored at 40° C. in a variety of buffers. The storage buffer used in this experiment was 100 mM NaPO4^−, pH7, with 10% sorbitol (+Sor) or without 10% sorbitol (−Sor) and with 10% glycerol (+Gly) or without 10% glycerol (−Gly) as indicated in Table 11. […] There were also differences in levels of N137 deamidation for the two proteins with the presence of at least glycerol and also the presence of both sorbitol and glycerol resulting in large decreases in N137 deamidation.

[3] = 4° C., 2 weeks, 1 mg/ml in Buffer 1 (pH 8)
[4] = 40° C., 2 weeks, 1 mg/ml in Buffer 1 (pH 8)
[5] = 40° C., 100 mM NaPO4, pH7, +Sor (10% sorbitol) −Gly
[6] = 40° C., 100 mM NaPO4, pH7, +Sor +Gly
[7] = 40° C., 100 mM NaPO4, pH7, −Sor +Gly (10% glycerol)
[8] = 40° C., 100 mM NaPO4, pH7, −Sor −Gly

| Molecule | Colon length ([1]; Example 13A) | Oxidation of M1 (MLEGEESVVYVGK) ([2]; 4° C., 2 weeks) [%] | Deamidation of N137 (ANTDVK) [2, 3] [%] | Oxidation of M1 (MLEGEESVVYVGK) ([2]; 40° C., 2 weeks) [%] | Deamidation of N137 (ANTDVK) [2, 4] [%] | Deamidation of N137 [2, 5] [%] | Oxidation of M1 [2, 5] [%] | Deamidation of N137 [2, 6] [%] | Oxidation of M1 [2, 6] [%] | Deamidation of N137 [2, 7] [%] | Oxidation of M1 [2, 7] [%] | Deamidation of N137 [2, 8] [%] | Oxidation of M1 [2, 8] [%] | other results |
| --- | --- | --- | --- | --- | --- | --- | --- | --- | --- | --- | --- | --- | --- | --- |
| SG-11 (SEQ ID NO:7): Recombinant SG-11 with N-terminal methionine, 233 amino acids, no N-terminal tag (protein) MLEGEESVVYVGKKGVIASLDVETLDQSYYDETELKSYVDAEVEDYTAEHGKNAVKVESLKVEDGVAKLKMKYKTPEDYTAFNGIELYQGKVVASLAAGYVYDGEFARVEEGKVVGAATKQDIYSEDDLKVAIIRANTDVKVDGEICYVSCQNVKLTGKDSVSIRDGYYLETGSVTASVDVTGQESVGTEQLSGTEQMEMTGEPVNADDTEQTEAAAGDGSFETDVYTFIVYK | significant increase in the colon length | 8.9 | 1.0 | 12.5 | 0.9 | 2.6 | 12.1 | 2.5 | 27.8 | 3.0 | 38.6 | 0.9 | 20 | 4KDa-FITC signal in serum ([1]; Example 13A, 50 nmoles/kg i.p. twice a day, p=0.04, FIG. 18A): significantly reduced the 4KDa-FITC signal; Deamidation of N83 [2, 3]: 19.4%; Deamidation of N83 [2, 4]: 98.1%; Deamidation of N83 [2, 5]: 93.9%; Deamidation of N83 [2, 6]: 87.4%; Deamidation of N83 [2, 7]: 96.2%; Deamidation of N83 [2, 8]: 98.1% |
| SG-11V5: SG-11 variant SEQ ID NO:19 comprising N53S, N83S, C147V, C151S with respect to SEQ ID NO:7 (protein) MLEGEESVVYVGKKGVIASLDVETLDQSYYDETELKSYVDAEVEDYTAEHGKSAVKVESLKVEDGVAKLKMKYKTPEDYTAFSGIELYQGKVVASLAAGYVYDGEFARVEEGKVVGAATKQDIYSEDDLKVAIIRANTDVKVDGEIVYVSSQNVKLTGKDSVSIRDGYYLETGSVTASVDVTGQESVGTEQLSGTEQMEMTGEPVNADDTEQTEAAAGDGSFETDVYTFIVYK | significant increase in the colon length | 2.5 | 0.1 | 4.7 | 0.3 | 3.3 | 3.3 | 0.1 | 5.9 | 0.4 | 5.6 | 1.5 | 2.7 | Gross pathology score (0-5) ([1]; Example 13, 160 nmoles/kg, dose dependent effect, p<0.002, FIG. 21): significant improvement; 4KDa-FITC signal in serum ([1]; Example 13, FIG. 18B, p=0.21): also reduced the 4KDa-FITC signal, although the difference was not reach statistical significance; LBP in serum (ELISA) ([1]; Example 13A, 158 nmoles/kg i.p. twice a day, p=0.003, FIG. 19A): significant reduction in LBP production; Body weight ([1]; Example 13A, 158 nmoles/kg, day 6, FIG. 20A): significant improvement in body weight; Dose dependence of effect on colon length ([1]; prophylactic DSS model, 16, 50 and 158 nmoles/kg): no dose-dependent effect on colon length |
